{"source": "patent US20160280799", "proteins": {"B1": {"name": "human MMP-12 catalytic domain (protein)", "chain": "GPVWRKHYITYRINNYTPDMNREDVDYAIRKAFQVWSNVTPLKFSKINTGMADILVVFARGAHGDFHAFDGKGGILAHAFGPGSGIGGDAHFDEDEFWTTHSGGTNLFLTAVHEIGHSLGLGHSSDPKAVMFPTYKYVDINTFRLSADDIRGIQSLYG"}}, "target": "All other MMP-12 binders", "data": [{"protein": "B1", "values": [{"measurement": "MMP-12 proteolytic activity, colorimetric assay (BIOMOL AK-402), VHH at 7 µM", "result": "did not inhibit MMP-12"}]}]}
